# Target: recombinant His6-tagged Drosophila PP1α87B (pET28a) (Drosophila) (UniProt P12982)
# UniProt P12982, sequence (P12982 whole entry): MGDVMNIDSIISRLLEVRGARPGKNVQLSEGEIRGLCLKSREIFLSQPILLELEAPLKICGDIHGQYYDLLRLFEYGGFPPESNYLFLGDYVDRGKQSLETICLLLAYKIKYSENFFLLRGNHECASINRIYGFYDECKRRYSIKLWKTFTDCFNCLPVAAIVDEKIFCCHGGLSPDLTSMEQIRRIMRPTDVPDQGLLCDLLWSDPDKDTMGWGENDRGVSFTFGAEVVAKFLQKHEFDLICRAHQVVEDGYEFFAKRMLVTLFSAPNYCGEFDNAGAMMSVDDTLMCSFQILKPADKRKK
binder,measurement,value
"recombinant His6-tagged Drosophila Uri (pET-28m), bacterially expressed (natural protein) MDRREDALLQALQTNASETERWEAFKRDNESTIRNLDKFAKNLSVEVMVPIGRKALMPGELIHTNELLVGHYEGYFSACSSHKAKEICQYRLKLAEEQLKKLAVENDLWQKKLHTPFAEGAVPSGDQVEIVEDFNEESHNKWLAEHRKRMRQQKQKERLEREAEPVKKDNEVLRKLEEREMMEELGLDPDNIDEDQLHDMLNQEPLKSTNESSPKSLTQEEEDELWKKLEAEEQNEADELSSEAEESLKTTDNLVRQLMSGETETPSSKKRTAGTNRNVEIQDPISEDDGDDDDEGDQEEEVRTIREQMSLLPNEDREPFLRAQLHVLKAKMRKIQKVNFISDELIHLMNVVVMLEDDLQDLVFEQELEASEEEEEVVENNHLPDEPSKELSTVSESSTNKRRISFALDDEKLEFRREETVAEMLPNAKKNSRDIIKLNAPLKPAGDPQPASIKTKRQTTQDILQKVERNIEFVKENQSVQDFDLLNRIMEESTGLINTLHISFTHSGAIPSPSSDQSDGIPGKPSDFYVRYEKDRARPNDSFPIYVNGFEGEEHVKVPIMSEAARGSAYEDPRSQFSKPNSSEICFTHSGSITPTSNDQSDDIPGNPFDFYEKYEKDRAKFSKSNSSEGDATDPESATKSILRNKSAVDLEPHNVNQQPKKGRKVRNQKKKERTLDDDLRDMSAYQKVMHDLVEKEPTAPEPLPPGKFIDSHAPKKRVSRFKEQRALNKT",inhibition of the myelin basic protein phosphatase activity of recombinant PP1α87B by Uri; IC50 of Uri relative to its IC50 against PP1β9C,25 fold
